± gives the standard deviation of the averaged measurements.
Test: total protein half-life in vivo (active degradation + dilution); higher = more stable protein
[1] = E. coli NCM3722 delta-clpP delta-lon delta-hslV, growth: N-lim chemostat, doubling time 6 h
[2] = wild type E. coli NCM3722, growth: C-lim chemostat, doubling time 3 h
[3] = E. coli NCM3722 delta-clpP, growth: N-lim chemostat, doubling time 6 h
[4] = E. coli NCM3722 delta-hslV, growth: N-lim chemostat, doubling time 6 h
[5] = E. coli NCM3722 delta-lon, growth: N-lim chemostat, doubling time 6 h
[6] = E. coli NCM3722 delta-smpB, growth: N-lim chemostat, doubling time 6 h
[7] = wild type E. coli NCM3722, growth: C-lim chemostat, doubling time 6 h
[8] = wild type E. coli NCM3722, growth: C-lim chemostat, doubling time 12 h
[9] = wild type E. coli NCM3722, growth: N-lim chemostat, doubling time 6 h
[10] = wild type E. coli NCM3722, growth: N-lim chemostat, doubling time 12 h
[11] = wild type E. coli NCM3722, growth: P-lim chemostat, doubling time 6 h
[12] = wild type E. coli NCM3722, growth: P-lim chemostat, doubling time 12 h

Sequence | total protein half-life in vivo [1] [h] | total protein half-life in vivo [2] [h] | total protein half-life in vivo [3] [h] | total protein half-life in vivo [4] [h] | total protein half-life in vivo [5] [h] | total protein half-life in vivo [6] [h] | total protein half-life in vivo [7] [h] | total protein half-life in vivo [8] [h] | total protein half-life in vivo [9] [h] | total protein half-life in vivo [10] [h] | total protein half-life in vivo [11] [h] | total protein half-life in vivo [12] [h]
MSEYRRYYIKGGTWFFTVNLRNRRSQLLTTQYQMLRHAIIKVKRDRPFEINAWVVLPEHMHCIWTLPEGDDDFSSRWREIKKQFTHACGLKNIWQPRFWEHAIRNTKDYRHHVDYIYINPVKHGWVKQVSDWPFSTFHRDVARGLYPIDWAGDVTDFSAGERIIS | 5.68 | 1.93 | – | – | – | – | – | – | – | – | – | –
MSFDSLGLSPDILRAVAEQGYREPTPIQQQAIPAVLEGRDLMASAQTGTGKTAGFTLPLLQHLITRQPHAKGRRPVRALILTPTRELAAQIGENVRDYSKYLNIRSLVVFGGVSINPQMMKLRGGVDVLVATPGRLLDLEHQNAVKLDQVEILVLDEADRMLDMGFIHDIRRVLTKLPAKRQNLLFSATFSDDIKALAEKLLHNPLEIEVARRNTASDQVTQHVHFVDKKRKRELLSHMIGKGNWQQVLVFTRTKHGANHLAEQLNKDGIRSAAIHGNKSQGARTRALADFKSGDIRVLVATDIAARGLDIEELPHVVNYELPNVPEDYVHRIGRTGRAAATGEALSLVCVDEHKLLRDIEKLLKKEIPRIAIPGYEPDPSIKAEPIQNGRQQRGGGGRGQGGGRGQQQPRRGEGGAKSASAKPAEKPSRRLGDAKPAGEQQRRRRPRKPAAAQ | 4.67 ± 1.2 | 3.12 | 5.49 ± 0.3 | 5.007 ± 0.03 | 5.23 ± 1.5 | 4.98 ± 0.23 | 7.2 | 14.7 ± 0.98 | 5.3 ± 0.071 | 8.71 ± 0.062 | 4.83 ± 0.43 | 9.31 ± 0.65
MSFFISDAVAATGAPAQGSPMSLILMLVVFGLIFYFMILRPQQKRTKEHKKLMDSIAKGDEVLTNGGLVGRVTKVAENGYIAIALNDTTEVVIKRDFVAAVLPKGTMKAL [P0ADZ7] | 5.95 ± 0.52 | 3.16 ± 0.14 | 6.69 ± 0.75 | 5.78 ± 0.33 | 5.892 ± 0.037 | 6.28 ± 0.31 | 6.018 ± 0.04 | 11.5 ± 0.56 | 5.64 ± 0.49 | 12.8 ± 2 | 6.55 ± 0.62 | 13 ± 0.39
MSFSVQETLFSLLQHNAISGHENAVADVMLCEFRRQAKEVWRDRLGNVVARYGSDKPDALRLMIFAHMDEVGFMVRKIEPSGFLRFERVGGPAQVTMAGSIVTLTGDKGPVMGCIGIKSYHFAKGDERTQSPSVDKLWIDIGAKDKDDAIRMGIQVGTPVTLYNPPQLLANDLVCSKALDDRLGCTALLGVADAISTMELDIAVYLVASVQEEFNIRGIVPVLRRVKPDLAIGIDITPSCDTPDLHDYSEVRINQGVGITCLNYHGRGTLAGLITPPRLIRMLEQTALEHNIPVQREVAPGVITETGYIQVEQDGIPCASLSIPCRYTHSPAEVASLRDLTDCIRLLTALAGMSAAHFPVEPDSGTTQEAHPL | > 8 | 3.05 ± 0.28 | – | – | – | – | 6.24 ± 0.29 | 10.9 ± 0.36 | – | – | – | 10.2
MSGAFNNDGRGISPLIATSWERCNKLMKRETWNVPHQAQGVTFASIYRRKKAMLTLGQAALEDAWEYMAPRECALFILDETACILSRNGDPQTLQQLSALGFNDGTYCAEGIIGTCALSLAAISGQAVKTMADQHFKQVLWNWAFCATPLFDSKGRLTGTIALACPVEQTTAADLPLTLAIAREVGNLLLTDSLLAETNRHLNQLNALLESMDDGVISWDEQGNLQFINAQAARVLRLDATASQGRAITELLTLPAVLQQAIKQAHPLKHVEATFESQHQFIDAVITLKPIIETQGTSFILLLHPVEQMRQLMTSQLGKVSHTFAHMPQDDPQTRRLIHFGRQAARSSFPVLLCGEEGVGKALLSQAIHNESERAAGPYIAVNCELYGDAALAEEFIGGDRTDNENGRLSRLELAHGGTLFLEKIEYLAVELQSALLQVIKQGVITRLDARRLIPIDVKVIATTTADLAMLVEQNRFSRQLYYALHAFEITIPPLRMRRGSIPALVNNKLRSLEKRFSTRLKIDDDALARLVSCAWPGNDFELYSVIENLALSSDNGRIRVSDLPEHLFTEQATDDVSATRLSTSLSFAEVEKEAIINAAQVTGGRIQEMSALLGIGRTTLWRKMKQHGIDAGQFKRRV | 6.1 ± 0.41 | 2.56 ± 0.055 | 4.96 | 3.96 | – | 4.08 ± 0.059 | 4.31 ± 1 | 9.42 ± 0.77 | 4.53 ± 0.17 | 8.2 ± 0.45 | 4.11 ± 0.61 | 7.3 ± 0.38
MSGDILQTPDAPKPQGALDNYFKITARGSTVRQEVLAGLTTFLAMVYSVIVVPGMLGKAGFPPAAVFVATCLVAGFGSLLMGLWANLPMAIGCAISLTAFTAFSLVLGQQISVPVALGAVFLMGVIFTAISVTGVRTWILRNLPMGIAHGTGIGIGLFLLLIAANGVGMVIKNPIEGLPVALGAFTSFPVMMSLLGLAVIFGLEKCRVPGGILLVIIAISIIGLIFDPAVKYHGLVAMPSLTGEDGKSLIFSLDIMGALQPTVLPSVLALVMTAVFDATGTIRAVAGQANLLDKDNQIINGGKALTSDSVSSIFSGLVGAAPAAVYIESAAGTAAGGKTGLTATVVGALFLLILFLSPLSFLIPGYATAPALMYVGLLMLSNVSKLDFNDFIDAMAGLVCAVFIVLTCNIVTGIMLGFVTLVVGRVFAREWQKLNIGTVIITAALVAFYAGGWAI | 4.51 ± 0.38 | 3.28 ± 0.56 | 5.04 ± 0.2 | 5.05 | 4.88 | 4.98 ± 0.49 | 4.99 ± 0.19 | – | 4.98 | 9.21 ± 0.52 | > 8 | 9.89 ± 0.52
MSGKPAARQGDMTQYGGSIVQGSAGVRIGAPTGVACSVCPGGVTSGHPVNPLLGAKVLPGETDIALPGPLPFILSRTYSSYRTKTPAPVGSLGPGWKMPADIRLQLRDNTLILSDNGGRSLYFEHLFPGEDGYSRSESLWLVRGGVAKLDEGHRLAALWQALPEELRLSPHRYLATNSPQGPWWLLGWCERVPEADEVLPAPLPPYRVLTGLVDRFGRTQTFHREAAGEFSGEITGVTDGAGRHFRLVLTTQAQRAEEARQQAISGGTEPSAFPDTLPGYTEYGRDNGIRLSAVWLTHDPEYPENLPAAPLVRYGWTPRGELAAVYDRSNTQVRSFTYDDKYRGRMVAHRHTGRPEICYRYDSDGRVTEQLNPAGLSYTYQYEKDRITITDSLNRREVLHTQGEGGLKRVVKKEHADGSVTQSQFDAVGRLRAQTDAAGRTTEYSPDVVTGLITRITTPDGRASAFYYNHHSQLTSATGPDGLEIRREYDEWGRLIQETAPDGDITRYRYDNPHSDLPCATEDATGSRKTMTWSRYGQLLSFTDCSGYVTRYDHDRFGQVTAVHREEGLSQYRAYDSRGQLIAVKDTQGHETRYEYNAAGDLTTVIAPDGSRNGTQYDAWGKAICTTQGGLTRSMEYDAAGRVIRLTSENGSHTTFRYDVLDRLIQETGFDGRTQRYHHDLTGKLIRSEDEGLVTHWHYDEADRLTHRTVNGETAERWQYDERGWLTDISHISEGHRVTVHYGYDSKGRLASEHLTVHHPQTNELLWQHETRHAYNAQGLANRCIPDSLPAVEWLTYGSGWLSGMKLGDTPLVEYTRDRLHRETLRSFGRYELTTAYTPAGQLQSQHLNSLLSDRDYTWNDNGELIRISSPRQTRSYSYSTTGRLTGVHTTAANLDIRIPYTTDPAGNRLPDPELHPDSALSMWPDNRIARDAHYLYRYDRHGRLTEKTDLIPEGVIRTDDERTHRYHYDSQHRLVHYTRTQYAEPLVESRYLYDPLGRRVAKRVWRRERDLTGWMSLSRKPQVTWYGWDGDRLTTIQNDRTRIQTIYQPGSFTPLIRVETATGELAKTQRRSLADTLQQSGGEDGGSVVFPPVLVQMLDRLESEILADRVSEESRRWLASCGLTVAQMQSQMDPVYTPARKIHLYHCDHRGLPLALISTEGTTAWYAEYDEWGNLLNEENPHQLQQLIRLPGQQYDEESGLYYNRHRYYDPLQGRYITQDPIGLKGGWNFYQYPLNPISNIDPLGLETLKCIKPLHSMGGTGERSGPDIWGNPFYHQYLCVPDGKGDYTCGGQDQRGESKGDGLWGPGKASNDTKEAAGRCDLVETDNSCVENCLKGKFKEVRPRYSVLPDIFTPINLGLFKNCQDWSNDSLETCKMKCSGNNIGRFIRFVFTGVM | – | – | – | – | – | – | – | – | – | – | – | 13.1
